# Experimental data as given in PMC4831847.
# Tested on: hPBV RdRP WT (human picobirnavirus strain Hy005102)
# Test: EMSA
# Conditions: 50 mM Tris-HCl pH 7.5, 50 mM KCl, 1 mM NaN3, 5 mM beta-mercaptoethanol, 10% glycerol, 1 nM 32P-RNA, 30 min at room temperature, 15% native PAGE in ice bath
substance,measurement,setting,value
CACACACACACACACACACA [CA repeat 20-mer],binding signal (fold lower affinity than 5'-(+)UTR),,10
GGACUAACAGUCCCAACUGC [PBV 3'-(+)UTR],binding signal (fold lower affinity than 5'-(+)UTR),,10
GUAAAAUUUUCGAAUUUUAU [PBV 5'-(+)UTR],binding signal,scale: fold higher affinity than 3'-(+)UTR or CA repeat,10
PBV2+ full-length,binding signal (fold stronger than PBV2+(Δ1-645)),,10
PBV2+(Δ1-645),binding signal (fold weaker than full-length PBV2+),,10
